Measurements as given in paper PMC5686756, “IKKγ-Mimetic Peptides Block the Resistance to Apoptosis Associated with Kaposi's Sarcoma-Associated Herpesvirus Infection” (Journal of Virology, 2017).
Positions of bridges follow the written chain, without caps; N, C: chain ends. Non-standard residues stand in square brackets, D forms with d. No end group written: not given here. S5 = C=CCCC[C@](C)(N)C(=O)O

Key:
[1] = target: T1, GB1-tagged ks-vFLIP (residues 1 to 188) (Kaposi's sarcoma-associated herpesvirus …, UniProt Q76RF1 1-188); assay: ITC; IKKγ(150–272) (~85-100 μM, syringe) titrated into GB1-vFLIP (~8-10 μM, cell); deionized water, 4% DMSO, 25°C; one-site model; apparent; settings: both partners purified
T1 construct: KSHV vFLIP (ks-vFLIP), residues 1 to 188, cloned into GB1-pBR22b (modified pET22b); GB1 is the streptococcal protein G immunoglobulin domain fusion tag; also called GB1–ks-vFLIP; GB1-vFLIP; source: E. coli BL21(DE3), purified (His-trap, Superdex S75 size exclusion); not shown: GB1, N-terminal, kept

[2] = target: T1, GB1-tagged ks-vFLIP (residues 1 to 188); assay: ITC; competition: GB1–ks-vFLIP first incubated with 20 μM spIKKγ and 4% DMSO, then titrated with IKKγ(150–272); deionized water, 25°C; apparent; settings: both partners purified

B1: IKKγ fragment encompassing residues 150 to 272 (domain or fragment, UniProt Q9Y6K9 150-272, looked up)
chain: LGELQESQSRLEAATKECQALEGRARAASEQARQLESEREALQQQHSVQVDQLRMQGQSVEAALRMERQAASEEKRKLAQLQVAYHQLFQEYDNHIKSSVVGSERKRGMQLEDLKQQLQQAEE
notes: also called IKKγ(150–272); NEMO
Kd [1]: 380 nM
apparent Kd in the presence of spIKKγ (20 μM) [2]: 30000 nM

LQVAYH[S5]LFQ[S5]YDNHIKSSC (staple 7-11) [spIKKγ, conformationally constrained stapled 20-mer peptide of the IKKγ minimal interacting motif (L]
Ki [2]: 257 nM
